Series [1] in a line: western blot of HDAC5 protein, mBMSCs. The conditions noted are these: glycan lost; control: DMSO. Background: A western blot detects proteins with antibodies after separation by electrophoresis.
Series [2] can be described thus: HDAC5 protein level in bone tissue. The settings on record: glycan lost; control: Ogtfl/fl mice.

B1: HDAC5: OSMI-1 (protein)
parent chain: MNSPNESDGMSGREPSLGILPRTPLHSIPVAVEVKPVLPGAMPSSMGGGGGGSPSPVELRGALAGPMDPALREQQLQQELLVLKQQQQLQKQLLFAEFQKQHDHLTRQHEVQLQKHLKQQQEMLAAKRQQELEQQRQREQQRQEELEKQRLEQQLLILRNKEKSKESAIASTEVKLRLQEFLLSKSKEPTPGGLNHSLPQHPKCWGAHHASLDQSSPPQSGPPGTPPSYKLPLLGPYDSRDDFPLRKTASEPNLKVRSRLKQKVAERRSSPLLRRKDGTVISTFKKRAVEITGTGPGVSSVCNSAPGSGPSSPNSSHSTIAENGFTGSVPNIPTEMIPQHRALPLDSSPNQFSLYTSPSLPNISLGLQATVTVTNSHLTASPKLSTQQEAERQALQSLRQGGTLTGKFMSTSSIPGCLLGVALEGDTSPHGHASLLQHVCSWTGRQQSTLIAVPLHGQSPLVTGERVATSMRTVGKLPRHRPLSRTQSSPLPQSPQALQQLVMQQQHQQFLEKQKQQQMQLGKILTKTGELSRQPTTHPEETEEELTEQQEALLGEGALTIPREGSTESESTQEDLEEEEEEEEEEEEDCIQVKDEDGESGPDEGPDLEESSAGYKKLFADAQQLQPLQVYQAPLSLATVPHQALGRTQSSPAAPGSMKSPTDQPTVVKHLFTTGVVYDTFMLKHQCMCGNTHVHPEHAGRIQSIWSRLQETGLLGKCERIRGRKATLDEIQTVHSEYHTLLYGTSPLNRQKLDSKKLLGPISQKMYAMLPCGGIGVDSDTVWNEMHSSSAVRMAVGCLVELAFKVAAGELKNGFAIIRPPGHHAEESTAMGFCFFNSVAITAKLLQQKLSVGKVLIVDWDIHHGNGTQQAFYNDPSVLYISLHRYDNGNFFPGSGAPEEVGGGPGVGYNVNVAWTGGVDPPIGDVEYLTAFRTVVMPIAQEFSPDVVLVSAGFDAVEGHLSPLGGYSVTARCFGHLTRQLMTLAGGRVVLALEGGHDLTAICDASEACVSALLSVELQPLDEAVLQQKPSVNAVATLEKVIEIQSKHWSCVQRFAAGLGCSLREAQTGEKEEAETVSAMALLSVGAEQAQAVATQEHSPRPAEEPMEQEPAL
For B1, in series [1], the expression_or_secretion entry is given as “increases”.

B2: HDAC5: Ogtfl/fl; Bglap-Cre (Ogt cKO) (protein)
parent chain: B1 parent chain
Regarding B2, the expression_or_secretion entry in series [2] is “increases”.

The values above are taken from paper PMC11626777.
